Assay results published in IntAct's records for PubMed 20863830.

B1: Phospholipid-transporting ATPase ABCA3 (Homo sapiens), Q99758 (parent)
chain: MAVLRQLALLLWKNYTLQKRKVLVTVLELFLPLLFSGILIWLRLKIQSENVPNATIYPGQSIQELPLFFTFPPPGDTWELAYIPSHSDAAKTVTETVRRALVINMRVRGFPSEKDFEDYIRYDNCSSSVLAAVVFEHPFNHSKEPLPLAVKYHLRFSYTRRNYMWTQTGSFFLKETEGWHTTSLFPLFPNPGPREPTSPDGGEPGYIREGFLAVQHAVDRAIMEYHADAATRQLFQRLTVTIKRFPYPPFIADPFLVAIQYQLPLLLLLSFTYTALTIARAVVQEKERRLKEYMRMMGLSSWLHWSAWFLLFFLFLLIAASFMTLLFCVKVKPNVAVLSRSDPSLVLAFLLCFAISTISFSFMVSTFFSKANMAAAFGGFLYFFTYIPYFFVAPRYNWMTLSQKLCSCLLSNVAMAMGAQLIGKFEAKGMGIQWRDLLSPVNVDDDFCFGQVLGMLLLDSVLYGLVTWYMEAVFPGQFGVPQPWYFFIMPSYWCGKPRAVAGKEEEDSDPEKALRNEYFEAEPEDLVAGIKIKHLSKVFRVGNKDRAAVRDLNLNLYEGQITVLLGHNGAGKTTTLSMLTGLFPPTSGRAYISGYEISQDMVQIRKSLGLCPQHDILFDNLTVAEHLYFYAQLKGLSRQKCPEEVKQMLHIIGLEDKWNSRSRFLSGGMRRKLSIGIALIAGSKVLILDEPTSGMDAISRRAIWDLLQRQKSDRTIVLTTHFMDEADLLGDRIAIMAKGELQCCGSSLFLKQKYGAGYHMTLVKEPHCNPEDISQLVHHHVPNATLESSAGAELSFILPRESTHRFEGLFAKLEKKQKELGIASFGASITTMEEVFLRVGKLVDSSMDIQAIQLPALQYQHERRASDWAVDSNLCGAMDPSDGIGALIEEERTAVKLNTGLALHCQQFWAMFLKKAAYSWREWKMVAAQVLVPLTCVTLALLAINYSSELFDDPMLRLTLGEYGRTVVPFSVPGTSQLGQQLSEHLKDALQAEGQEPREVLGDLEEFLIFRASVEGGGFNERCLVAASFRDVGERTVVNALFNNQAYHSPATALAVVDNLLFKLLCGPHASIVVSNFPQPRSALQAAKDQFNEGRKGFDIALNLLFAMAFLASTFSILAVSERAVQAKHVQFVSGVHVASFWLSALLWDLISFLIPSLLLLVVFKAFDVRAFTRDGHMADTLLLLLLYGWAIIPLMYLMNFFFLGAATAYTRLTIFNILSGIATFLMVTIMRIPAVKLEELSKTLDHVFLVLPNHCLGMAVSSFYENYETRRYCTSSEVAAHYCKKYNIQYQENFYAWSAPGVGRFVASMAASGCAYLILLFLIETNLLQRLRGILCALRRRRTLTELYTRMPVLPEDQDVADERTRILAPSPDSLLHTPLIIKELSKVYEQRVPLLAVDRLSLAVQKGECFGLLGFNGAGKTTTFKMLTGEESLTSGDAFVGGHRISSDVGKVRQRIGYCPQFDALLDHMTGREMLVMYARLRGIPERHIGACVENTLRGLLLEPHANKLVRTYSGGNKRKLSTGIALIGEPAVIFLDEPSTGMDPVARRLLWDTVARARESGKAIIITSHSMEECEALCTRLAIMVQGQFKCLGSPQHLKSKFGSGYSLRAKVQSEGQQEALEEFKAFVDLTFPGSVLEDEHQGMVHYHLPGRDLSWAKVFGILEKAKEKYGVDDYSVSQISLEQVFLSFAHLQPPTAEEGR
partner: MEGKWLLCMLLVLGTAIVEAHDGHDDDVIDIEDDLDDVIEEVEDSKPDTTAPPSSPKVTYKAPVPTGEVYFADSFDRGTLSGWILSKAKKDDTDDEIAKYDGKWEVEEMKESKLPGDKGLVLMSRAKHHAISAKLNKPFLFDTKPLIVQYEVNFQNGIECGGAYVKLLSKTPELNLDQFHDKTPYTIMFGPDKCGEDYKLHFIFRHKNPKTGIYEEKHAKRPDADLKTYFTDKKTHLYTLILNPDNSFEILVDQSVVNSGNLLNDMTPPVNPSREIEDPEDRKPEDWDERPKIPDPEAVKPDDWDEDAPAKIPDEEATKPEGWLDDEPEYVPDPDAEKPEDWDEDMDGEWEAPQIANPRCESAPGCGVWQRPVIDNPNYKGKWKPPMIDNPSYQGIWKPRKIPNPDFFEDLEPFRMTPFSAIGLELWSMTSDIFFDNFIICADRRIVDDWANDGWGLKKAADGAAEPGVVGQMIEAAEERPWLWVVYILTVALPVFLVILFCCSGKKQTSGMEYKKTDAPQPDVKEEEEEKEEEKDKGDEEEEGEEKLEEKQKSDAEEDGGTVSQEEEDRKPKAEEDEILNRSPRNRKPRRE
B2: Phospholipid-transporting ATPase ABCA3 (Homo sapiens), Q99758 (parent)
chain: B1 chain
partner: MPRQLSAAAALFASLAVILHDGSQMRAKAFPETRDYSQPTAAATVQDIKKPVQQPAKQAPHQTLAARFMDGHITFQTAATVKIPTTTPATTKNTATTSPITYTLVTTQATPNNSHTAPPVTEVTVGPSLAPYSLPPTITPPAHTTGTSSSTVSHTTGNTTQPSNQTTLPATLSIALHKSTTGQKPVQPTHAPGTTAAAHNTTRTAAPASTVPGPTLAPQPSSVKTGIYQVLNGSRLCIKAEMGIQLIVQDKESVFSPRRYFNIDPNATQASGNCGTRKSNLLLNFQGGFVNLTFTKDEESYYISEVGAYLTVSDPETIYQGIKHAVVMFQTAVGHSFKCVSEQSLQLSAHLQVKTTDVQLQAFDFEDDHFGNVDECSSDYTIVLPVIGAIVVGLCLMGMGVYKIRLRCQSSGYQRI

Variants of: B1
Settings: with calx_human CANX

effect of a mutation on the interaction | Variant
increasing interaction | Q215K

Variants of: B2
Settings: with lamp3_human LAMP3, Q9UQV4

effect of a mutation on the interaction | Variant
disrupting interaction | Q215K
